Results on 1 molecule are retold here after publication PMC11846418 (Cancer Cell International, 2025).

This experiment addresses HA-CDK1 (UniProt P06493 1-297). Description: pull-down.

Sequence of HA-CDK1 (P06493 whole entry): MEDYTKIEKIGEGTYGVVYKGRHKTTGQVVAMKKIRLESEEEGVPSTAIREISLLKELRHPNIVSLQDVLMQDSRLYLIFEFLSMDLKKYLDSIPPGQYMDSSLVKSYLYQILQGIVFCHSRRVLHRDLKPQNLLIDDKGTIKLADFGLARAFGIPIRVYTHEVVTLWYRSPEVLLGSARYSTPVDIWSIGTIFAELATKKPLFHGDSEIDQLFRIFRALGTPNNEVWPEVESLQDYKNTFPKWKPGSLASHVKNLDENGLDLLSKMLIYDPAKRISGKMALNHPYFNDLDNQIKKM

B1: GST-USP7 210-500 (domain or fragment, UniProt Q93009 210-500, looked up)
chain: HTGYVGLKNQGATCYMNSLLQTLFFTNQLRKAVYMMPTEGDDSSKSVPLALQRVFYELQHSDKPVGTKKLTKSFGWETLDSFMQHDVQELCRVLLDNVENKMKGTCVEGTIPKLFRGKMVSYIQCKEVDYRSDRREDYYDIQLSIKGKKNIFESFVDYVAVEQLDGDNKYDAGEHGLQEAEKGVKFLTLPPVLHLQLMRFMYDPQTDQNIKINDRFEFPEQLPLDEFLQKTDPKDPANYILHAVLVHSGDNHGGHYVVYLNPKGDGKWCKFDDDVVSRCTKEEAIEHNYGG
Turning to B1, the binding result is recorded as “binds”.
